Target: Polycomb Repressive Complex 2 (PRC2), purified through FLAG-tagged human EED from HeLa or HEK293T nuclear … (human, UniProt O75530 1-441; Q15910 1-746)
Test: cell-based or functional assay

Polycomb Repressive Complex 2 (PRC2), purified through FLAG-tagged human EED from HeLa or HEK293T nuclear …, sequence (O75530 whole entry, chain 1 of 2): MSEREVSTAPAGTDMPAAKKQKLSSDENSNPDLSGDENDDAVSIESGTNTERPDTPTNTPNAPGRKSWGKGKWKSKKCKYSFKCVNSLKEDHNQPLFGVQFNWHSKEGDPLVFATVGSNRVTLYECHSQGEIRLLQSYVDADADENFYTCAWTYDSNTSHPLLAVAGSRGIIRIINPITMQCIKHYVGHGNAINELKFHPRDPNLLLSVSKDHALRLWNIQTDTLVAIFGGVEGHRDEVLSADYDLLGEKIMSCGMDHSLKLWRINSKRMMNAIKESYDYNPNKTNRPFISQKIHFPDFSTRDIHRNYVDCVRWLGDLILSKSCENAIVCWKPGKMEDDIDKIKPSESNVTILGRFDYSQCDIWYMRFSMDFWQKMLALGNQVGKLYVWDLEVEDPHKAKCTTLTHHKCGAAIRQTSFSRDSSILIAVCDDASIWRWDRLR
Polycomb Repressive Complex 2 (PRC2), purified through FLAG-tagged human EED from HeLa or HEK293T nuclear …, sequence (Q15910 whole entry, chain 2 of 2): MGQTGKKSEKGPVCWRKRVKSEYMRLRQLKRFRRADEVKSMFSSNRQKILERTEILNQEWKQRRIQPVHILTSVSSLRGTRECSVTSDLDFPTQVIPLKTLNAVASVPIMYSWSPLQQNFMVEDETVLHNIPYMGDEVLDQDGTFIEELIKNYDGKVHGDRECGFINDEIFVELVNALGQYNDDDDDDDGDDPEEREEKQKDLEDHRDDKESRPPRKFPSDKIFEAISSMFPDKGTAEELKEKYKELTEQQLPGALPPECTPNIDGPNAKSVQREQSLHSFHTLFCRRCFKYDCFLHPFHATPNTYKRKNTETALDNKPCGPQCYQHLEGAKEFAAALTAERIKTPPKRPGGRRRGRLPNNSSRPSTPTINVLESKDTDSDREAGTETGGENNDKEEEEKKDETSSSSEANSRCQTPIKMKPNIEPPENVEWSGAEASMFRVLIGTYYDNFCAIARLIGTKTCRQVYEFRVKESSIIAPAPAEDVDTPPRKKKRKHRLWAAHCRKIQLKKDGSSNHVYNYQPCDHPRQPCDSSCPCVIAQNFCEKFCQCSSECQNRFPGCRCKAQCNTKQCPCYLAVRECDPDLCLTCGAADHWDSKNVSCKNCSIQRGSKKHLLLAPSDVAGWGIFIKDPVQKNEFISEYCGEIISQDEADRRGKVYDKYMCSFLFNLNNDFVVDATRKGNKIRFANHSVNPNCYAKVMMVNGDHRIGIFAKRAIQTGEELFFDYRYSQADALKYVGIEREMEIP

KQLATKAARISAPSTGGVKK [H3 peptide (18-37) with Lys27 replaced by Ile]
IC50, in vitro PRC2 methylation reactions: 8.9 µM
